# Assay results: PMC4537477
# Columns and labels:
# [1] = target: full-length human histone H3 (human) (UniProt P68431); assay: SEC; Superdex 200 10/300 GL; complex obtained at 0.5 mol/L NaCl; eluted at 14.38 mL, apparent molecular weight about 60 kDa; apparent stoichiometry also by Coomassie-stained SDS-PAGE
# [2] = target: histone H3-H4 heterodimer (human) (UniProt P68431); assay: as above
Substance,stoichiometry N [1],stoichiometry N [2]
full-length human histone H4 (from UniProt P62805 1-103) (natural protein),1,
N-terminal domain of human MCM2 (aa 63–154) (from UniProt P49736 63-154) (domain or fragment),,1
globular domain of ASF1a (aa 1–157) (from UniProt Q9Y294 1-157) (domain or fragment),,1
